The target in this experiment is recombinant FGF-2 (rFGF-2) of SEQ ID NO: 2 (bovine) (UniProt P03969). As to the kind of experiment: commercial ELISA for human FGF-2 (R&D Systems), cross-reactivity against human FGF-2. (In general: An ELISA detects its analyte on a solid surface through an enzyme-linked reagent.)
Sequence of UniProt P03969 (P03969 10-155 limits assumed): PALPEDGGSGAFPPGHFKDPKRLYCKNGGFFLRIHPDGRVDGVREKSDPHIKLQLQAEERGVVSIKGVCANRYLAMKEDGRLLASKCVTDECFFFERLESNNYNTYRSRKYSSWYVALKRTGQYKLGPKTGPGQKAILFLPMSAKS

Regarding “commercially available ELISA (R&D Systems, Minneapolis Minn.) that was marketed for analysis of human FGF-2 (antibody)”, the cross-reactivity is 100%.

The record behind these values is patent US20070142283A1.
